Data taken from paper PMC8163826.
Read-outs that look alike come from different tables or passages of the source.

Tests used:
[1] = biological target: RSV CA protein (Rous sarcoma virus); assay: cryo-EM structure; single-particle cryo-EM of T = 1 and T = 3 icosahedral CLPs; 500 µM CA assembled in 1 M NaPO4 at pH 8, diluted 1:4
[2] = biological target: RSV CA protein (Rous sarcoma virus); assay: as above; remark: listed apart in the source
[3] = biological target: RSV CASPNC (Rous sarcoma virus); assay: cryo-EM structure; cryo-electron tomography and subtomogram averaging of CASPNC CLPs (regular tubes and polyhedrons) assembled in the presence of 100 µM IP6
[4] = biological target: RSV CASPNC (Rous sarcoma virus); assay: as above; remark: listed apart in the source

| Substance | stoichiometry N [1] | stoichiometry N [2] | stoichiometry N [3] | stoichiometry N [4] |
| --- | --- | --- | --- | --- |
| RSV CA protein (natural protein) | 6 | 5 |  |  |
| RSV CASPNC (domain or fragment) |  |  | 5 | 6 |
